Consider 19 molecules from US20260176358A1 (JIANGSU HENGRUI PHARMACEUTICALS, published 2026).

One assay concerns the target T1, human CGRP (human, UniProt P06881 83-119).
T1 peptide (looked up): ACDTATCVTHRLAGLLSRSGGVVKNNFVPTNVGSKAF
The assay can be described thus: ELISA, coated CGRP. On the procedure: (§1) In this test example, the abilities of the chimeric antibodies and humanized antibodies of C1 #, C9 #, C21 #, and C28 #to bind to human CGRP and rat CGRP were assessed using ELISAs. Plates were coated with […] human CGRP and rat CGRP, respectively, and blocked, and the antibodies, serially diluted, were then added. The plates were incubated for 1 h and washed, and a horseradish peroxidase-labeled anti-human Fc secondary antibody was then added. After incubation, color development was performed. […] The plates were incubated for 1 h and washed, and the antibodies, serially diluted, were then added. The plates were incubated for 1 h and washed, and a horseradish peroxidase-labeled streptavidin secondary antibody was then added. After incubation, color development was performed.
On the technique in general: In an ELISA, binding on a coated surface is turned into a signal by an enzyme label.

In the next assay the target is T2, rat CGRP (rat, UniProt P01256 83-119).
T2 peptide (looked up): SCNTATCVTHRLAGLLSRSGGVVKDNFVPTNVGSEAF
The assay can be described thus: ELISA, coated CGRP. On the procedure:
as §1

B1: C21H2L2 (antibody, human IgG1, kappa, V domains shown)
VH: EVQLVQSGAEVKKPGASVKVSCKASGYTFTDYYMNWVRQAPGQRLEWIGDINPNQGGTNYNQKFKGRATLTVDKSASTAYMELSSLRSEDTAVYYCASIIIVPNYFDYWGQGTTVTVSS
VL: DIQMTQSPSSLSASVGDRVTITCKASQNVDTNVAWFQQKPGKSPKALIYSASYRYSGVPSRFSGSGSGTDFTLTISSLQPEDFATYYCQQYNNYPYTFGGGTKVEIKR
The EC50 is the concentration needed to bring the measured effect to its halfway point. On to B1, for which the results for the concentration giving a half-maximal response (EC50) with human CGRP and in the assay with rat CGRP were 3.4 nM and 9.27 nM, respectively.

B2: C9H3L1 (antibody, human IgG1, kappa, V domains shown)
VH: EVQLVQSGAEVKKPGASVKVSCKASGYTFTDYYMNWVRQAPGQRLEWMGVINPYQGRTTYNRKFKGRVTITVDKSASTAYMELSSLRSEDTAVYYCASLLIRPHYFDYWGQGTTVTVSS
VL: DIQMTQSPSSLSASVGDRVTITCKASQNVGTNVAWYQQKPGKSPKALIYSASYRYSGVPSRFSGSGSGTDFTLTISSLQPEDVATYHCQQYNFYPYTFGQGTKLEIKR
Turning to B2, the EC50 with human CGRP was 1.3 nM; in the assay with rat CGRP it was 4.27 nM.

B3: C21H1L2 (antibody, human IgG1, kappa, V domains shown)
VH: EVQLVQSGAEVKKPGASVKVSCKASGYTFTDYYMNWVRQAPGQRLEWIGDINPNNVGTNYNQKFKGRATLTVDKSASTAYMELSSLRSEDTAVYYCASIIIVPNYFDYWGQGTTVTVSS
VL: DIQMTQSPSSLSASVGDRVTITCKASQNVDTNVAWFQQKPGKSPKALIYSASYRYSGVPSRFSGSGSGTDFTLTISSLQPEDFATYYCQQYNNYPYTFGGGTKVEIKR
For B3, the EC50 in the assay with human CGRP was found to be 2.57 nM; with rat CGRP, 5.26 nM.

B4: C9H2L1 (antibody, human IgG1, kappa, V domains shown)
VH: EVQLVQSGAEVKKPGASVKVSCKASGYTFTDYYMNWVRQAPGQRLEWIGVINPYNVRTTYNRKFKGRATLTVDKSASTAYMELSSLRSEDTAVYYCASLLIRPHYFDYWGQGTTVTVSS
VL: DIQMTQSPSSLSASVGDRVTITCKASQNVGTNVAWYQQKPGKSPKALIYSASYRYSGVPSRFSGSGSGTDFTLTISSLQPEDVATYHCQQYNFYPYTFGQGTKLEIKR
Take B4: the EC50 with human CGRP is 1.41 nM; in the assay with rat CGRP, 4.32 nM.

B5: C28H7L1 (antibody, human IgG1, kappa, V domains shown)
VH: EVQLVQSGAEVKKPGASVKVSCKASGYTFTDYYMNWVRQAPGQRLEWIGDINPNTGVTTYNQKFKGRATLTVDKSASTAYMELSSLRSEDTAVYYCASIIIVPDYFDYWGQGTTVTVSS
VL: DIQMTQSPSSVSASVGDRVTITCKASQNVGSNVAWYQQKPGKSPKALIYSASYRYSGVPSRFSGSGSGTDFTLTISSLQPEDFATYYCQQYNSYPYTFGGGTKVEIKR
For B5, the EC50 with human CGRP was determined as 1.47 nM; in the assay with rat CGRP it was 2.72 nM.

B6: C9H1L1 (antibody, human IgG1, kappa, V domains shown)
VH: EVQLVQSGAEVKKPGASVKVSCKASGYTFTDYYMNWVRQAPGQRLEWMGVINPYNVRTTYNRKFKGRVTITVDKSASTAYMELSSLRSEDTAVYYCASLLIRPHYFDYWGQGTTVTVSS
VL: DIQMTQSPSSLSASVGDRVTITCKASQNVGTNVAWYQQKPGKSPKALIYSASYRYSGVPSRFSGSGSGTDFTLTISSLQPEDVATYHCQQYNFYPYTFGQGTKLEIKR
With B6, the EC50 with human CGRP came to 1.58 nM; with rat CGRP, 5.3 nM.

B7: C28H5L1 (antibody, human IgG1, kappa, V domains shown)
VH: EVQLVQSGAEVKKPGASVKVSCKASGYTFTDYYMNWVRQAPGQRLEWIGDINPNSGVTTYNQKFKGRATLTVDKSASTAYMELSSLRSEDTAVYYCASIIIVPDYFDYWGQGTTVTVSS
VL: DIQMTQSPSSVSASVGDRVTITCKASQNVGSNVAWYQQKPGKSPKALIYSASYRYSGVPSRFSGSGSGTDFTLTISSLQPEDFATYYCQQYNSYPYTFGGGTKVEIKR
Regarding B7, the half-maximal effective concentration (EC50) in the assay with human CGRP came to 1.58 nM; with rat CGRP, 3.72 nM.

B8: C21H1L1 (antibody, human IgG1, kappa, V domains shown)
VH: EVQLVQSGAEVKKPGASVKVSCKASGYTFTDYYMNWVRQAPGQRLEWIGDINPNNVGTNYNQKFKGRATLTVDKSASTAYMELSSLRSEDTAVYYCASIIIVPNYFDYWGQGTTVTVSS
VL: DIQMTQSPSSLSASVGDRVTITCKASQNVDTNVAWFQQKPGKAPKSLIYSASYRYSGVPSRFSGSGSGTDFTLTISSLQPEDFATYYCQQYNNYPYTFGGGTKVEIKR
On to B8, for which the EC50 with human CGRP was 2.54 nM; with rat CGRP, 3.86 nM.

B9: C28H4L1 (antibody, human IgG1, kappa, V domains shown)
VH: EVQLVQSGAEVKKPGASVKVSCKASGYTFTDYYMNWVRQAPGQRLEWIGDINPNQGVTTYNQKFKGRATLTVDKSASTAYMELSSLRSEDTAVYYCASIIIVPDYFDYWGQGTTVTVSS
VL: DIQMTQSPSSVSASVGDRVTITCKASQNVGSNVAWYQQKPGKSPKALIYSASYRYSGVPSRFSGSGSGTDFTLTISSLQPEDFATYYCQQYNSYPYTFGGGTKVEIKR
In the case of B9, the results for the EC50 with human CGRP and with rat CGRP were 1.43 nM and 6.45 nM, respectively.

B10: C9H4L1 (antibody, human IgG1, kappa, V domains shown)
VH: EVQLVQSGAEVKKPGASVKVSCKASGYTFTDYYMNWVRQAPGQRLEWIGVINPYQGRTTYNRKFKGRATLTVDKSASTAYMELSSLRSEDTAVYYCASLLIRPHYFDYWGQGTTVTVSS
VL: DIQMTQSPSSLSASVGDRVTITCKASQNVGTNVAWYQQKPGKSPKALIYSASYRYSGVPSRFSGSGSGTDFTLTISSLQPEDVATYHCQQYNFYPYTFGQGTKLEIKR
In the case of B10, the EC50 in the assay with human CGRP turned out to be 1.25 nM; in the assay with rat CGRP, 4.2 nM.

B11: C28H3L1 (antibody, human IgG1, kappa, V domains shown)
VH: EVQLVQSGAEVKKPGASVKVSCKASGYTFTDYYMNWVRQAPGQRLEWMGDINPNQGVTTYNQKFKGRVTITVDKSASTAYMELSSLRSEDTAVYYCASIIIVPDYFDYWGQGTTVTVSS
VL: DIQMTQSPSSVSASVGDRVTITCKASQNVGSNVAWYQQKPGKSPKALIYSASYRYSGVPSRFSGSGSGTDFTLTISSLQPEDFATYYCQQYNSYPYTFGGGTKVEIKR
On to B11, for which the EC50 with human CGRP came to 1.65 nM; with rat CGRP, 3.97 nM.

B12: C9H5L1 (antibody, human IgG1, kappa, V domains shown)
VH: EVQLVQSGAEVKKPGASVKVSCKASGYTFTDYYMNWVRQAPGQRLEWMGVINPYSGRTTYNRKFKGRVTITVDKSASTAYMELSSLRSEDTAVYYCASLLIRPHYFDYWGQGTTVTVSS
VL: DIQMTQSPSSLSASVGDRVTITCKASQNVGTNVAWYQQKPGKSPKALIYSASYRYSGVPSRFSGSGSGTDFTLTISSLQPEDVATYHCQQYNFYPYTFGQGTKLEIKR
On to B12, for which the EC50 in the assay with human CGRP was 1.29 nM; in the assay with rat CGRP, 4.48 nM.

B13: C21H3L1 (antibody, human IgG1, kappa, V domains shown)
VH: EVQLVQSGAEVKKPGASVKVSCKASGYTFTDYYMNWVRQAPGQRLEWMGDINPNSGGTNYNQKFKGRVTITVDKSASTAYMELSSLRSEDTAVYYCASIIIVPNYFDYWGQGTTVTVSS
VL: DIQMTQSPSSLSASVGDRVTITCKASQNVDTNVAWFQQKPGKAPKSLIYSASYRYSGVPSRFSGSGSGTDFTLTISSLQPEDFATYYCQQYNNYPYTFGGGTKVEIKR
Turning to B13, the figures for the EC50 with human CGRP and in the assay with rat CGRP were 3.57 nM and 7.94 nM, respectively.

B14: C21H4L2 (antibody, human IgG1, kappa, V domains shown)
VH: EVQLVQSGAEVKKPGASVKVSCKASGYTFTDYYMNWVRQAPGQRLEWIGDINPNTGGTNYNQKFKGRATLTVDKSASTAYMELSSLRSEDTAVYYCASIIIVPNYFDYWGQGTTVTVSS
VL: DIQMTQSPSSLSASVGDRVTITCKASQNVDTNVAWFQQKPGKSPKALIYSASYRYSGVPSRFSGSGSGTDFTLTISSLQPEDFATYYCQQYNNYPYTFGGGTKVEIKR
B14: the EC50 with human CGRP came out at 2.8 nM; with rat CGRP, 5.68 nM.

B15: C21H4L1 (antibody, human IgG1, kappa, V domains shown)
VH: EVQLVQSGAEVKKPGASVKVSCKASGYTFTDYYMNWVRQAPGQRLEWIGDINPNTGGTNYNQKFKGRATLTVDKSASTAYMELSSLRSEDTAVYYCASIIIVPNYFDYWGQGTTVTVSS
VL: DIQMTQSPSSLSASVGDRVTITCKASQNVDTNVAWFQQKPGKAPKSLIYSASYRYSGVPSRFSGSGSGTDFTLTISSLQPEDFATYYCQQYNNYPYTFGGGTKVEIKR
With B15, the EC50 was 2.9 nM with human CGRP and 7.36 nM with rat CGRP.

B16: C1H1L1 (antibody, human IgG1, kappa, V domains shown)
VH: EVQLVQSGAEVKKPGSSVKVSCKASGYTFSTSWMNWVRQAPGQGLEWMGQIYPGDGYTNYSGKFRGRVTITADKSTSTAYMELSSLRSEDTAVYYCAGDYEALWGQGTTVTVSS
VL: DIVMTQTPLSLPVTPGEPASISCRSSQSLVHSNGNTYFHWYLQKPGQSPQLLIYEVSNRFSGVPDRFSGSGSGTDFTLKISRVEAEDVGVYYCSQSTHVPFTFGQGTKLEIKR
As for B16, the EC50 with human CGRP was 1.83 nM; in the assay with rat CGRP it was 3.1 nM.

B17: C1H1L2 (antibody, human IgG1, kappa, V domains shown)
VH: EVQLVQSGAEVKKPGSSVKVSCKASGYTFSTSWMNWVRQAPGQGLEWMGQIYPGDGYTNYSGKFRGRVTITADKSTSTAYMELSSLRSEDTAVYYCAGDYEALWGQGTTVTVSS
VL: DIVMTQTPLSLPVTPGEPASISCRSSQSLVHSSGNTYFHWYLQKPGQSPQLLIYEVSNRFSGVPDRFSGSGSGTDFTLKISRVEAEDVGVYYCSQSTHVPFTFGQGTKLEIKR
With B17, the EC50 with human CGRP was determined as 2.72 nM; with rat CGRP, 2.44 nM.

B18: C1H3L2 (antibody, human IgG1, kappa, V domains shown)
VH: EVQLVQSGAEVKKPGSSVKVSCKASGYTFSTSWMNWVRQAPGQGLEWMGQIYPGDGYTNYNVKFRGRVTITADKSTSTAYMELSSLRSEDTAVYYCAGDYEALWGQGTTVTVSS
VL: DIVMTQTPLSLPVTPGEPASISCRSSQSLVHSSGNTYFHWYLQKPGQSPQLLIYEVSNRFSGVPDRFSGSGSGTDFTLKISRVEAEDVGVYYCSQSTHVPFTFGQGTKLEIKR
On to B18, for which the EC50 turned out to be 1.39 nM in the assay with human CGRP and 1.97 nM with rat CGRP.

B19: C1H2L1 (antibody, human IgG1, kappa, V domains shown)
VH: EVQLVQSGAEVKKPGSSVKVSCKASGYTFSTSWMNWVRQAPGQGLEWMGQIYPGDGYTNYQGKFRGRVTITADKSTSTAYMELSSLRSEDTAVYYCAGDYEALWGQGTTVTVSS
VL: DIVMTQTPLSLPVTPGEPASISCRSSQSLVHSNGNTYFHWYLQKPGQSPQLLIYEVSNRFSGVPDRFSGSGSGTDFTLKISRVEAEDVGVYYCSQSTHVPFTFGQGTKLEIKR
Take B19: the EC50 is 2.61 nM in the assay with human CGRP and 2.38 nM with rat CGRP.
